Test results from article PMC314469, “Protein Interaction Networks by Proteome Peptide Scanning” (PLoS Biology, 2004).

T1: Abp1 SH3 (ABP1_YEAST), P15891
T1 chain: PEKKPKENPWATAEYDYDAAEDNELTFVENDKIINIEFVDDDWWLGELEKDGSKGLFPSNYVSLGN


Target: T1, Abp1 SH3 (ABP1_YEAST), P15891
Assay: SPOT array

Binder	normalised SPOT signal, Boehringer light units (BLU); mean over the file's lines of this peptide
LIDPRVDPILMRP [YER101C 153-165]	75.9
LDDSPVTPGETRP [YGR086C 227-239]	64.5
LKPENILLSAPDKP [YJL141C 497-510]	7.9
LHQYLSETYGPTKP [YGL174W 3-16]	39
LDVLKIKPLPYKP [YER093C 582-594]	2070
LIKSILNRSVPKRP [YAL017W 1330-1343]	324
LDNILPLEWYPLRP [YHR204W 395-408]	84.7
LESNSMRGYQPFRP [YBR136W 2029-2042]	250
LAKYAGLPTAEKP [YDL033C 211-223]	55.9
LKSLNLPQLPPPKP [YDR266C 568-581]	40.9
LDLSNIKPIQLKP [YGR193C 231-243]	176
LKERANKPKRKRP [YFR013W 73-85]	157
LELTNPSPIQIKP [YDR285W 822-834]	82.9
KYREIIRNDLPPRP [YGR109W-B 563-576]	86
LKLSNISHHSPVKP [YBR050C 283-296]	103
LEVVKSLYDRPLKP [YGR232W 85-98]	63.6
LFGSGIGEEAPTKP [YJL095W 372-385]	118
LEFVRGKQNIPRKP [YGR230W 120-133]	800
LAFFHNIPKKVRP [YDL058W 339-351]	221
LAPMMQKGNLPKRP [YBR056W 390-403]	3410
LEGNELYPLSYKP [YGL131C 1252-1264]	65.6
LEVPERIPEVLRP [YFL004W 802-814]	14.9
LFDGPENVINPLKP [YDR392W 289-302]	35
LHYHVIGSNGPAKP [YGR198W 51-64]	60.8
LESSPKKHVSPSRP [YAL028W 269-282]	184
LDATEAPIDLPQKP [YIL171W 41-54]	77.8

Second part, the binder after the results:

normalised SPOT signal, Boehringer light units (BLU); mean over the file's lines of this peptide	Binder
97.5	LDHAIKLSRNPDKP [YLL051C 566-579]
40	LELAVPGTYFPGKP [YJR066W 2073-2086]
118	LELVQPLPASKKP [YOL087C 650-662]
57.3	LDDSPVTPGEARP [YPL004C 227-239]
163	LKKTLKKKKTPKKP [YKR084C 74-87]
160	LDEQPGFQILPFKP [YOR023C 257-270]
110	LSGIQDNLLSPLKP [YOR365C 124-137]
72.3	LDANEPPIDLPQKP [YOL156W 41-54]
1240	LEKRGRVPLQARP [YNL284C 230-242]
1030	LISKWTIMPHPNRP [YOL008W 135-148]
84.3	LEARTNFPLILRP [YLR428C 53-65]
69	LHGNTNAPTPLRP [YPR099C 85-97]
0	LEVVDGSPYGYRP [YLL015W 4-16]
88.4	LHLEKMKPDLKKP [YOL078W 925-937]
577	LDRLKKNPYAHKP [YPL029W 708-720]
40.8	LKKSGKLPTWVKP [YLR193C 56-68]

normalised SPOT signal, Boehringer light units (BLU); mean over the file's lines of this peptide	Binder
323	LKSFFTNPNKKRP [YOR098C 23-35]
76.1	LEGSVSLPRFSKP [YOL021C 286-298]
176	LIARNVRTFKPFKP [YNL213C 178-191]
118	LESLSMLPEIVRP [YLR085C 335-347]
110	LHLIEILPKLIKP [YMR110C 95-107]
81.6	LIPELPSPKDLRP [YMR049C 412-424]
138	LEKLGDISDIPVKP [YPL167C 291-304]
404	LILGKMVKWGPLRP [YOL072W 276-289]
748	LITRLRVPTIKRP [YOR147W 33-45]
466	LSGSIIGPKRVKP [YLR427W 248-260]
125	LDATEPPIDLPQKP [YJL219W 41-54]
188	LGIDKRSSTKPTKP [YLR054C 309-322]
75.2	LSGSDYLQSGPRKP [YMR168C 296-309]
86.1	LEEKKEQPKVEKP [YLR429W 427-439]
185	LGKVVAVKIIPKKP [YKL048C 110-123]
74.2	LIPVQELPLLLKP [YML010W 362-374]
